Measurements reported in publication PMC8097366, “The Dual Function of KDM5C in Both Gene Transcriptional Activation and Repression Promotes Breast Cancer Cell Growth and Tumorigenesis” (Advanced Science, 2021).

Target: T1, HA-tagged KDM5C, full length (UniProt P41229 1-1560)
T1 construct: KDM5C (JARID1C, SMCX), histone demethylase; the truncations run to residue 1560; KDM5C was sub-cloned into pCDH-3×Flag-3×HA-EF1-puro and into pLV-EF1-puro(cs2.0)-N-3×HA; also called HA-KDM5C; KDM5C FL; source: HEK293T, transfected, in lysate, nuclear extract or cytosolic extract; HEK293T, purified on anti-HA agarose
Test: co-IP; cytosolic extracts from transfected HEK293T cells; IP with anti-HA antibody; immunoblotting
Conditions: partners not purified

T1 sequence (P41229 whole entry, the tested form may be a part): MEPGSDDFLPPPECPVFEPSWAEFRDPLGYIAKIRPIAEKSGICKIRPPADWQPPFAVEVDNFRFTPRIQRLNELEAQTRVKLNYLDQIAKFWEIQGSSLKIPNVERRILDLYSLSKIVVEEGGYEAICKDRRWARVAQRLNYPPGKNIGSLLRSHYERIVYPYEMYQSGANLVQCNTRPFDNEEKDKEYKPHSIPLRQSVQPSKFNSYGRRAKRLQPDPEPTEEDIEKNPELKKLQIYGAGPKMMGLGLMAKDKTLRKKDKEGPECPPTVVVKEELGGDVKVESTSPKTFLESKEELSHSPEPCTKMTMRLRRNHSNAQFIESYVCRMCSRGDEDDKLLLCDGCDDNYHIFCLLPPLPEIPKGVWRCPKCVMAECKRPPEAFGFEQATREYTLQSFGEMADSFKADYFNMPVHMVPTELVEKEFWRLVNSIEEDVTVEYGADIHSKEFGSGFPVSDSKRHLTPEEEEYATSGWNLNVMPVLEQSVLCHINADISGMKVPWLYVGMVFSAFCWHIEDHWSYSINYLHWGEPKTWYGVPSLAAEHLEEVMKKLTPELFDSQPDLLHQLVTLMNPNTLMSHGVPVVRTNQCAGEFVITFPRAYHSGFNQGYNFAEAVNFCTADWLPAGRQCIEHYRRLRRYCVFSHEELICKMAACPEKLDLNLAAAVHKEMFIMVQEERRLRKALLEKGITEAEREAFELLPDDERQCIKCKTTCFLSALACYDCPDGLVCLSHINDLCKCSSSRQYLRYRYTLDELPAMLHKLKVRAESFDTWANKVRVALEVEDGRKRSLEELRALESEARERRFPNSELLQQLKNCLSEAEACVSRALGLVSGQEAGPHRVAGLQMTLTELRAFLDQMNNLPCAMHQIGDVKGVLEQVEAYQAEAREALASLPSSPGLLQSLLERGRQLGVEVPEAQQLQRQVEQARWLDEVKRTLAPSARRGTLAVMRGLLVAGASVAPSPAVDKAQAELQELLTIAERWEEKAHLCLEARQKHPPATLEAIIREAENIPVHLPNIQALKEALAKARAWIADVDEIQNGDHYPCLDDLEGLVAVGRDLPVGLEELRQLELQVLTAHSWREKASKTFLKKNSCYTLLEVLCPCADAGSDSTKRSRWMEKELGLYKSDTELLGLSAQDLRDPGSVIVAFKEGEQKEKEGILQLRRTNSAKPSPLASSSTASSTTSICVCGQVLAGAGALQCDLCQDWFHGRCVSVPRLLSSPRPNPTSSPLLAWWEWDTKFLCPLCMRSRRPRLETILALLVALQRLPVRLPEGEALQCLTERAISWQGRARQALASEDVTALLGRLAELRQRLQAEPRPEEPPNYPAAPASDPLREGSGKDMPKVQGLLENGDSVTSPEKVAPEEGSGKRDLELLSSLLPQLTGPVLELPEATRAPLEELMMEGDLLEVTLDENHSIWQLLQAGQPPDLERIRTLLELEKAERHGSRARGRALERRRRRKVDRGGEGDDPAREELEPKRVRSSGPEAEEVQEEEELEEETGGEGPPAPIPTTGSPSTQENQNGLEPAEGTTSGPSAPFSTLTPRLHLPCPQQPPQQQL

B1: Flag-tagged TBK1 (pBOBI-3×Flag-hTBK1) (enzyme, human, UniProt Q9UHD2 1-729, looked up)
chain: MQSTSNHLWLLSDILGQGATANVFRGRHKKTGDLFAIKVFNNISFLRPVDVQMREFEVLKKLNHKNIVKLFAIEEETTTRHKVLIMEFCPCGSLYTVLEEPSNAYGLPESEFLIVLRDVVGGMNHLRENGIVHRDIKPGNIMRVIGEDGQSVYKLTDFGAARELEDDEQFVSLYGTEEYLHPDMYERAVLRKDHQKKYGATVDLWSIGVTFYHAATGSLPFRPFEGPRRNKEVMYKIITGKPSGAISGVQKAENGPIDWSGDMPVSCSLSRGLQVLLTPVLANILEADQEKCWGFDQFFAETSDILHRMVIHVFSLQQMTAHKIYIHSYNTATIFHELVYKQTKIISSNQELIYEGRRLVLEPGRLAQHFPKTTEENPIFVVSREPLNTIGLIYEKISLPKVHPRYDLDGDASMAKAITGVVCYACRIASTLLLYQELMRKGIRWLIELIKDDYNETVHKKTEVVITLDFCIRNIEKTVKVYEKLMKINLEAAELGEISDIHTKLLRLSSSQGTIETSLQDIDSRLSPGGSLADAWAHQEGTHPKDRNVEKLQVLLNCMTEIYYQFKKDKAERRLAYNEEQIHKFDKQKLYYHATKAMTHFTDECVKKYEAFLNKSEEWIRKMLHLRKQLLSLTNQCFDIEEEVSKYQEYTNELQETLPQKMFTASSGIKHTMTPIYPSSNTLVEMTLGMKKLKEEMEGVVKELAENNHILERFGSLTMDGGLRNVDCL
notes: TBK1, kinase; hTBK1 in the construct's name; The end of the tag and the species are read from the printed name of the construct; also called Flag-TBK1; source: HEK293T, transfected, in cytosolic extract; HEK293T, purified (eluted with 3×Flag peptide); not shown: 3×Flag, N-terminal, kept
B1: binds.
